Experiments:
[1] = molecular target: mature HIV-1 protease bearing drug-resistance mutation L76V (PR_(L76V)) (HIV-1); test: enzyme activity against protease concentration
[2] = molecular target: mature HIV-1 protease bearing drug-resistance mutation L76V (PR_(L76V)) (HIV-1); test: ITC

Substance | Kd [1] | Kd [2]
mature HIV-1 protease bearing drug-resistance mutation L76V (PR_(L76V)) (enzyme) | 71 nM | –
RPB inhibitor (H-Arg-Val-Leu-(r)-Phe-Glu-Ala-Nle-NH2), substrate-analog inhibitor with a reduced peptide bond | – | 61 nM

Reference: paper PMC3101314
